This note sets out measurements from paper PMC7840993, “Fluorescent thermal shift-based method for detection of NF-κB binding to double-stranded DNA” (Scientific Reports, 2021).

Series [1] has as its target T1, p50 1-367 (complete RHD) (human) (UniProt P19838).
T1 sequence: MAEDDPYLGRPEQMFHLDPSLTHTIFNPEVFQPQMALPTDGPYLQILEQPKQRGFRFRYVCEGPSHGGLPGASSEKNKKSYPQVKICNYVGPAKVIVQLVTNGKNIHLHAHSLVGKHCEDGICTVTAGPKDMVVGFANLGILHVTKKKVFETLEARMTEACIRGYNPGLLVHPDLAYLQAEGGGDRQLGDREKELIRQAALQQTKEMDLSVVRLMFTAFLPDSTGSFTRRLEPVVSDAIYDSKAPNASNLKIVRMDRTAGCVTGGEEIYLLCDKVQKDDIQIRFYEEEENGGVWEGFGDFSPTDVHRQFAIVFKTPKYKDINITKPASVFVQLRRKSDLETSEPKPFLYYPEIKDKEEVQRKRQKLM
As to the kind of experiment: fluorescence thermal shift (SYPRO Orange). The conditions noted are these: apparent KD, two equivalent κB sites considered; 1.5 µM protein; ΔTmax 2.462 °C; Thermal shift: 50 mM Tris-HCl pH 7.5, 225 mM NaCl, 2.25% glycerol, 25 min at 4 °C, then 25-95 °C melt; EMSA: 10 mM Tris-HCl pH 7.5, 0.5 mM EDTA, 65 mM KCl, 5 mM. A general note: A gel shift assay detects complexes by their altered migration in electrophoresis.

Series [2] deals with p65/RelA 1-306 (complete RHD) (human) (UniProt Q04206). The series can be described thus: fluorescence thermal shift (SYPRO Orange). The note with it: apparent KD, two equivalent κB sites considered; 1.5 µM protein; ΔTmax 1.678 °C; Thermal shift: 50 mM Tris-HCl pH 7.5, 225 mM NaCl, 2.25% glycerol, 25 min at 4 °C, then 25-95 °C melt; EMSA: 10 mM Tris-HCl pH 7.5, 0.5 mM EDTA, 65 mM KCl, 5 mM.
Sequence of p65/RelA 1-306 (complete RHD) (human) (Q04206 1-306): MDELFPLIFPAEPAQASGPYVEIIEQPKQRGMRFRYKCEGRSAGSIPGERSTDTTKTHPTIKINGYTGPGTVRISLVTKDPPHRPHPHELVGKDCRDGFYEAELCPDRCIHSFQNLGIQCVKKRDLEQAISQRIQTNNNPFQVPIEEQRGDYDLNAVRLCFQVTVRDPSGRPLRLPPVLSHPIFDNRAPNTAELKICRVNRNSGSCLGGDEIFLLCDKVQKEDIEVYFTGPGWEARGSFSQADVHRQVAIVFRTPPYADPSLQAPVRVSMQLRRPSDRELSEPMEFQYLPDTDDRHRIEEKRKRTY

Series [3] concerns the target T2, p50 (Homo sapiens, UniProt P19838).
T2 construct: gene NFKB1; p50_1-367 (aa 1–367, complete RHD), HIS-tagged
T2 sequence (P19838 1-367): T1 sequence
The series can be described thus: inhibition of dsDNA binding by fluorescence thermal shift assay.

Series [4] concerns the target p65/RelA (Homo sapiens, UniProt Q04206). As to the kind of experiment: inhibition of […]κB dsDNA binding by fluorescence thermal shift assay (also lowers Tm of the protein without DNA); EMSA.
Series [5] concerns the target p65/RelA 1-306 (complete RHD) (human, UniProt Q04206 1-306). As to the kind of experiment: fluorescence thermal shift (SYPRO Orange); 10 µM DNA, 1.5 µM protein; Tm raised about 1-1.5 °C (1κB and 2κB range); Thermal shift: 50 mM Tris-HCl pH 7.5, 225 mM NaCl, 2.25% glycerol, 25 min at 4 °C, then 25-95 °C melt; EMSA: 10 mM Tris-HCl pH 7.5, 0.5 mM EDTA, 65 mM KCl, 5 mM MgCl2, 1 mM DTT, 100 µg/mL BSA, 10% glycerol, 50 ng/µl poly(dI-dC), 45 min at 30 °C. The note with it: protein: recombinant; chain copies: 2; label: none; only one strand given.

Series [6] deals with p50 1-367 (complete RHD) (human, UniProt P19838 1-367). As to the kind of experiment: fluorescence thermal shift (SYPRO Orange); 10 µM DNA, 1.5 µM protein; Tm raised about 2-3 °C (1κB and 2κB range); Thermal shift: 50 mM Tris-HCl pH 7.5, 225 mM NaCl, 2.25% glycerol, 25 min at 4 °C, then 25-95 °C melt; EMSA: 10 mM Tris-HCl pH 7.5, 0.5 mM EDTA, 65 mM KCl, 5 mM MgCl2, 1 mM DTT, 100 µg/mL BSA, 10% glycerol, 50 ng/µl poly(dI-dC), 45 min at 30 °C. The conditions noted are these: protein: recombinant; tags: His, N-terminal Myc; chain copies: 2; label: none; only one strand given.

Sequence of p65/RelA 1-306 (complete RHD) (Q04206 1-306): as above
Sequence of p65/RelA (Q04206 1-306): as above

Regarding “AATTCGGGACTTTCCCGTCGGGACTTTCC (double strand) [2κB dsDNA]”, the values for the Kd in series [1] and in series [2] were 0.794 µM and 2.23 µM, respectively.

As to `CC1=C(CO)C(=O)O[C@@H]([C@@H](C)[C@H]2CC[C@H]3[C@@H]4C[C@H]5O[C@]56[C@@H](O)C=CC(=O)[C@]6(C)[C@H]4CC[C@]23C)C1` [WFA, withaferin A], the IC50 (commonly the concentration at which inhibition is half-maximal) in series [3] is roughly 19.1 µM; in series [4], roughly 16.4 µM.

B1: 1κB dsDNA (dsDNA)
DNA 1: AGTTGAGGGGACTTTCCCAGGC
DNA 2: GCCTGGGAAAGTCCCCTCAACT
In the case of B1, the binding result in series [5] and in series [6] was “binds” throughout.
